From paper PMC11379828 come the findings set out here.

One data set has as its target T1, MBP-EFD (1-260 aa) (Arabidopsis thaliana, UniProt Q9M389 1-260).
T1 sequence: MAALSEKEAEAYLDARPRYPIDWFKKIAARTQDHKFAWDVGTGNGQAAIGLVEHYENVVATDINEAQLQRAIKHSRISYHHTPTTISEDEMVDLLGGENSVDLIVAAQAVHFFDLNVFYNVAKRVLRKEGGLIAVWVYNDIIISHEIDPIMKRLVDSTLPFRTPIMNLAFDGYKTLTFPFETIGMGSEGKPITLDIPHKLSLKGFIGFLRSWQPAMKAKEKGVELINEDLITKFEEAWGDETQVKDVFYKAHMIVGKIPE
Kind of data set: EMSA. For orientation: A gel shift assay detects complexes by their altered migration in electrophoresis.

Another data set has as its target T2, MBP-EFD (Arabidopsis thaliana, UniProt Q9M389 1-323).
T2 sequence: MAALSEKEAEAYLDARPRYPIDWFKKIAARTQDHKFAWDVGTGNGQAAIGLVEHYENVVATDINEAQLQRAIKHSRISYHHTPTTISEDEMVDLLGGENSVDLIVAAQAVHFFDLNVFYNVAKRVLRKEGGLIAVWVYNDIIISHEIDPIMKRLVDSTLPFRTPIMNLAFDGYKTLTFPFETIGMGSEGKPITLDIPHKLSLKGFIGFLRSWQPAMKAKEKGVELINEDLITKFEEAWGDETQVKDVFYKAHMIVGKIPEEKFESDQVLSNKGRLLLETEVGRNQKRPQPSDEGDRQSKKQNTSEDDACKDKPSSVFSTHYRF
Kind of data set: EMSA.

B1: HB21 probe, unmethylated (HB21+1410) (dsDNA)
DNA 1: ATCCTCTGTGACCATTGAAGCCAATCATACGACACCGTTTTTTGGAGATTACGACATCGGATTTGACGGTGAGGCTGACGAG
DNA 2: CTCGTCAGCCTCACCGTCAAATCCGATGTCGTAATCTCCAAAAAACGGTGTCGTATGATTGGCTTCAATGGTCACAGAGGAT
In the case of B1, the binding result with MBP-EFD (1-260 aa) and with MBP-EFD was “binds” throughout.

B2: HB21 probe, methylated (HB21+1410) (dsDNA)
DNA 1: ATCCTCTGTGACCATTGAAGCCAATCATACGACACCGTTTTTTGGAGATTACGACATCGGATTTGACGGTGAGGCTGACGAG
DNA 2: CTCGTCAGCCTCACCGTCAAATCCGATGTCGTAATCTCCAAAAAACGGTGTCGTATGATTGGCTTCAATGGTCACAGAGGAT
modifications: 5-methylcytosine, positions not given
As to B2, in the data set with MBP-EFD (1-260 aa), the binding result was “binds”.
